Substitutions are numbered along the chain they refer to. Each block holds one binder with its values, some of them ahead of it.
How the values were obtained:
[1] = target: T1, Human ROBO2 Ig1-Ig2-His (human, UniProt Q9HCK4 31-220); experiment: SPR, antibody on CM5 chip, ROBO2 Ig1-Ig2-His
T1 construct: the His tag is named only in the SPR paragraphs; the Octet and ELISA paragraphs print 'ROBO2 Ig1-Ig2' without a tag; also called ROBO2 Ig1-2; Human ROBO2 Ig 1,2
T1 sequence: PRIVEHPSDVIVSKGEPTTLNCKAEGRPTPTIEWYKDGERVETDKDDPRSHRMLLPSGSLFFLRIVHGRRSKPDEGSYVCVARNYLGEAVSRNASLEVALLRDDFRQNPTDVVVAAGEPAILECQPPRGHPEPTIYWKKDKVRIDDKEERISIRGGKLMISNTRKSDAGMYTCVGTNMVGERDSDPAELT
Method: Based upon several criteria, Abcs25 and Abcs35 were selected for further characterization. Using flow cytometry, improvement in the binding EC₅₀ to human ROBO2 relative to the parental 93H2 was evaluated. Starting at 6.7 nM, 11-point, 3-fold dilution series were made for each antibody and used to stain HEK293 overexpressing human ROBO2 as described above for the ROBO2 fold selectivity (Example 2). […] In addition to measuring improved binding to human ROBO2, it was important to ensure that high affinity binding to both cynomolgus monkey ROBO2 and rat ROBO2 was maintained. Using HEK293 cells overexpressing either cynomolgus monkey ROBO2 or rat ROBO2, the relative dose-dependent binding of 93H2, Abcs25 and Abcs35 was evaluated as described above. High affinity binding to both cynomolgus monkey and rat ROBO2 was maintained in Abcs25 and Abcs35 (Table 4). […] Briefly, Abcs35 was immobilized to 300 resonance units (RU) on a CM5 chip. Association of ROBO2 Ig1-Ig2-His (ROBO2) was measured over 5 minutes and dissociation was followed for a period of 10 minutes.
Affinity was measured by standard SPR methods as described in Example 3. Briefly, antibodies were immobilized to a specific measure of resonance units (RU) on a CM5 chip. Association of ROBO2 Ig1-Ig2-His (ROBO2) and dissociation will be followed for a period of time.

[2] = target: T2, Terbium (Tb) labeled-SNAP tagged ROBO2 expressed on HEK293 cells (Homo sapiens (Human), UniProt Q9HCK4 22-1378, terbium label on the SNAP tag); experiment: HTRF competition, competitor d2-SLIT2-N, ROBO2 HEK293 cells
T2 construct: also called Tb-labeled ROBO2 cells; ROBO2 expressing cells; not shown: SNAP tag
T2 sequence: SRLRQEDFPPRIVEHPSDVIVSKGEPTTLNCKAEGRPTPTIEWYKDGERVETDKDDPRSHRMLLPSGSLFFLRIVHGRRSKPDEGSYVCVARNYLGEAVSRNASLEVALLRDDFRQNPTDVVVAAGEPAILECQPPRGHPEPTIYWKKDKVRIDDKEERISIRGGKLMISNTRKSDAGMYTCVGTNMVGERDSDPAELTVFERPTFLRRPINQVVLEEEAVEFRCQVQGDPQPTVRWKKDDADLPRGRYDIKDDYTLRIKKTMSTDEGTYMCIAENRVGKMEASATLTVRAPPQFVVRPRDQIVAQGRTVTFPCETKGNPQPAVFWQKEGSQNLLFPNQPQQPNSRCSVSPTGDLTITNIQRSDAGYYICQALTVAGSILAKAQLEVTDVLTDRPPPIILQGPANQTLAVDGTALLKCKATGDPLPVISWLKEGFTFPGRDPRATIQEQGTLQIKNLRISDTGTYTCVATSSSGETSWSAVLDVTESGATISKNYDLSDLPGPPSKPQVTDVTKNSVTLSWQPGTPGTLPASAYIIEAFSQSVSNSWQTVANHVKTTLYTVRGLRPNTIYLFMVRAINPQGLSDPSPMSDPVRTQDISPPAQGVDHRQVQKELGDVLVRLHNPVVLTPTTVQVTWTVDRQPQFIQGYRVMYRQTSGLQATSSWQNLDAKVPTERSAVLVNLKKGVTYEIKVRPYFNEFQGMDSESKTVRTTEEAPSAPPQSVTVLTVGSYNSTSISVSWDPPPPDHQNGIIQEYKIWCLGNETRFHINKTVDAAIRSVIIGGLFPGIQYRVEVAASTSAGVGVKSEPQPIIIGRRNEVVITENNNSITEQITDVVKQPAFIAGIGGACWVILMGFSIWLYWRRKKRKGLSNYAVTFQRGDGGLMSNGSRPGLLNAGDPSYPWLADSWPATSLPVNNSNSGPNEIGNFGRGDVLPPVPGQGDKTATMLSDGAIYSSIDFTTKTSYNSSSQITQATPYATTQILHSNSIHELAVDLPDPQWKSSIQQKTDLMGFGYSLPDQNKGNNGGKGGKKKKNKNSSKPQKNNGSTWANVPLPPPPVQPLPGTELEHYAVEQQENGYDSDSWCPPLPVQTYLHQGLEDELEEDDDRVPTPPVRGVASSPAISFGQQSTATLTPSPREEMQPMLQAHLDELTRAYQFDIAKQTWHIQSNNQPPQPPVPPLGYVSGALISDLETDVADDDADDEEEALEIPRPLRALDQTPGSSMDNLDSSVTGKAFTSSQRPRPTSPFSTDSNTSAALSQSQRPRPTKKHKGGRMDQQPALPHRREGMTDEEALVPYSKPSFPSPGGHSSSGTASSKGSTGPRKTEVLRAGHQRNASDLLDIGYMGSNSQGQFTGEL
Method: A ROBO2-SLIT2-N homogenous time resolved fluorescence (HTRF) assay was used to identify antibodies that were capable of blocking SLIT2-N binding to ROBO2. In this assay, terbium (Tb) labeled-SNAP tagged ROBO2 expressing HEK293 cells were incubated with 5 nM d2-labeled SLIT-2N in the presence of 1 nM anti-ROBO2 antibodies for 1 hour. After incubation, fluorescence at 665 nm and 620 nm was measured on an Envision multilabel plate reader. […] Maximal signal was defined as the HTRF ratio of Tb-labeled ROBO2 cells with d2-labeled SLIT2-N in the absence of antibody, the minimum signal was defined as the HTRF ratio of Tb-labeled ROBO2 expressing HEK293 cells only. One nanomolar (nM) parental antibody, 93H2, was unable to block the HTRF assay, therefore this concentration was selected to identify clones with a higher affinity than 93H2 (Table 2, HTRF Ratio column). […] Antibodies derived from chain (Abcs series) or CDR shuffling (CTIR-2 series) were evaluated in 11-point, 5-fold dilution series with a top concentration of 1500 nM (Table 2 HTRF IC₅₀).
Neutralization of SLIT2-N binding to ROBO2 was assessed ROBO2:SLIT2-N homogenous time resolved fluorescence (HTRF) assay as described in Example 2. Briefly the HTRF assay was performed as follows: terbium (Tb) labeled-SNAP tagged ROBO2 expressing HEK293 cells were incubated with d2-labeled SLIT-2N in the presence of anti-ROBO2 antibodies for 1 hour. After incubation, fluorescence at 665 nm and 620 nm was measured on an Envision multi-label plate reader. […] Maximal signal was defined as the HTRF ratio of Tb-labeled ROBO2 cells with d2-labeled SLIT2-N in the absence of antibody, the minimum signal was defined as the HTRF ratio of Tb-labeled ROBO2 expressing HEK293 cells only.

B1: Abcs35 (antibody, human IgG1, kappa)
heavy: EVQLVQSGAEVKKPGASVKVSCKASGYTFTGYYMHWVRQAPGQGLEWMGWINPKNGDTEFPQKFQGRVTMTRDTSITTAYMDLSRLRSDDTAVYYCARESGDDAFDIWGQGTMVTVSSASTKGPSVFPLAPSSKSTSGGTAALGCLVKDYFPEPVTVSWNSGALTSGVHTFPAVLQSSGLYSLSSVVTVPSSSLGTQTYICNVNHKPSNTKVDKKVEPKSCDKTHTCPPCPAPEAAGAPSVFLFPPKPKDTLMISRTPEVTCVVVDVSHEDPEVKFNWYVDGVEVHNAKTKPREEQYNSTYRVVSVLTVLHQDWLNGKEYKCKVSNKALPAPIEKTISKAKGQPREPQVYTLPPSREEMTKNQVSLTCLVKGFYPSDIAVEWESNGQPENNYKTTPPVLDSDGSFFLYSKLTVDKSRWQQGNVFSCSVMHEALHNHYTQKSLSLSPGK
light: DIVMTQSPSSLSASVGDRVTITCRASQSISSYLNWYQQKPGKAPKLLIYAASSLQSGVPSRFSGSGSGTDFTLTISSLQPEDFATYYCQQSVGLFFGGGTKVEIKRTVAAPSVFIFPPSDEQLKSGTASVVCLLNNFYPREAKVQWKVDNALQSGNSQESVTEQDSKDSTYSLSSTLTLSKADYEKHKVYACEVTHQGLSSPVTKSFNRGEC
notes: fully human IgG1; VH of Ab96 with VL of Ab123
Kd [1]: 0.0857 nM
IC50 [2]: 0.0761 nM

Kd [1]: 0.0939 nM
IC50 [2]: 0.0744 nM
B2: Abcs35-J (antibody, human IgG1, kappa)
heavy: B1 heavy with D82E
light: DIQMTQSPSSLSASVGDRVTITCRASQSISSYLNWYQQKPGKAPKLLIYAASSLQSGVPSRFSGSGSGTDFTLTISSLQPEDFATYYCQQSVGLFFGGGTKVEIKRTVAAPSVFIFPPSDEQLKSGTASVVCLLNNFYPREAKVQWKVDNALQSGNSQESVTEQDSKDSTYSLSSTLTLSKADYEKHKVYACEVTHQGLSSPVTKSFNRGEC
notes: germlined variant of Abcs35; also called ABCS-J

Reference: patent US20200157212A1 (Pfizer, published 2020)
